In PMC9876794 (2022):

B1: D176 (antibody, V domains shown)
VH: QVQLVQSGAEVKKPGASVKVSCKASGYTFTSYDINWVRQATGQGLEWMGWMNPNSGNTGYAQKFQGRVTITRNTSISTAYMELSSLRSEDTAVYYCARGGSLMDVWGKGTTVTVSS
VL: QFVLTQPASVSGSPGQSITISCTGTSSDVGGYNYVSWYQQHPGKAPKLMIYDVSKRPSGVSNRFSGSKSGNTASLTISGLQAEDEADYYCSSYTSSSTFEVFGGGTKLTVL
B2: D179 (antibody, V domains shown)
VH: EVQLVESGGGLVQPGRSLRLSCAASGFTFDDYAMHWVRQAPGKGLEWVSGISWNSGSIGYADSVKGRFTISRDNAKNSLYLQMNSLRAEDTALYYCAKGQIVGATSSDYGMDVWGQGTTVTVSS
VL: DIQMTQSPSSVSASVGDRVTITCRASQGISSWLAWYQQKPGKAPKLLIYAASSLQSGVPSRFSGSGSGTDFTLTISSLQPEDFATYYCQQANSFPYTFGQGTKLEIK
B3: D156 (antibody, V domains shown)
VH: EVQLLESGGGLAQPGGSLRLSCAASGFTFSSYAMSWVRQAPGKGLEWVSAISGSGGTYYADFVKGRFTISRDDSKNTLYLQINSLRAEDTAIYYCAKDGYGSGNYKLRYLELWGRGTLVTVSS
VL: QSVLTQPASVSGSPGQSITISCTGTSSDVGGYNYVSWYQQHPGKAPKFMIYDVSKRPSGVSNRFSGSKSGNTASLTISGLQAEDEADYYCFSYAGSLVFGGGTKLTVL
B4: D185 (antibody, V domains shown)
VH: QVQLVQSGAEVKKPGSSVKVSCKASGGTFSSYAISWVRQAPGQGLEWMGGIIPIFGTANYAQKFQGRVTITADKSTSTAYMELSSLRSEDTAVYYCARAQQQLVQHGGYGMDVWGQGTTVTVSS
VL: QSVLTQPPSVSGAPGQRVTISCTGSSSNIGAGYDVHWYQQLPGTAPKLLIYGNSNRPSGVPDRFSGSKSGTSASLAITGLQAEDEADYYCQSYDSSLSAVVFGGGTKLTVL
B5: C2713 (antibody, V domains shown)
VH: QVQLVQSGAEVKKPGASVKVSCKASGYTFTSYYMHWVRQAPGQGLEWMGIINPSGGSTSYAQKFQGRVTMTRDTSTSTVYMELRSLRSEDTAVYYCARDRSSNYGMDVWGQGTTVTVSS
VL: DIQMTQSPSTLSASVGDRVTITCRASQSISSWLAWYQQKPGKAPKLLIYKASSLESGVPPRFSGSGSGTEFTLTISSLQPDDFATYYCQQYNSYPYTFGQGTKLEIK
B6: D153 (antibody, V domains shown)
VH: QVQLVQSGAEVKKPGASVKVSCKASGYTFTSYGISWVRQAPGQGLEWMGWISAYNGNTNYAQKLQGRVTMTTDTSTSTAYMELRSLRSDDTAVYYCARDFNDFWSGYWGYWGQGTLVTVSS
VL: QSALTQPPSASGSPGQSVTISCTGTSSDVGGYNYVSWYQQHPGKAPKLMIYEVSKRPSGVPDRFSGSKSGNTASLTVSGLQAEDEADYYCSSYAGSNNLVFGGGTKLTVL
B7: D180 (antibody, V domains shown)
VH: EVQLVESGGGLVQPGGTLRLSCEASGFAFSTFWMTWVRQAPGKGLEWVANIKQDGSEKYYVDSVKGRFTISRDNAKNSLYLQMNSLRAEDTAVYYCASRSIVVAGTDYWGQGTLVTVSS
VL: not shown
B8: D123 (antibody, V domains shown)
VH: EVQLVESGGGLVQPGRSLRLSCAASGFIFDDYAMHWVRQVPGKGLEWVSGISWNGGIIGQADSVKGRFTISRDNAKNSLYLQMNNLRAEDTALYFCTKDVGPGSPNYFDSWGQGTLVTVSS
VL: DIQMTQSPSTLSASVGDRVTITCRASQSISSWLAWYQQKPGKAPKFLIYKTSNLENGVPSRFSGSGSGTEFTLTISSLQPDDFATYFCQEYITNSRTFGQGTRLEIK
B9: D052 (antibody, V domains shown)
VH: EVQLVESGGGLVQPGGSLRLSCAASGFTFSSYDMHWVRQATGKGLEWVSAIGTAGDTYYPGSVKGRFTISRENAKNSLYLQMNSLRAGDTAVYYCARVGYSLYGDYKSYWYFDLWGRGTLVTVSS
VL: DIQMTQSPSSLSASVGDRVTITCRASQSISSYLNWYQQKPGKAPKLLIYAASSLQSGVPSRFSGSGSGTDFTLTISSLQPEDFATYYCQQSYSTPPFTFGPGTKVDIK
B10: D097 (antibody, V domains shown)
VH: EVQLVQSGAEVKKPGESLKISCKGSGYSFTSYWIGWVRQMPGKGLEWMGIIYPGDSDTRYSPSFQGQVTISADKSISTAYLQWSSLKASDTAMYYCARLGDAGAFDIWGQGTMVTVSS
VL: QSVLTQPPSVSGAPGQRVTISCTGSSSNIGAGYDVHWYQQLPGTAPKLLIYGNSNRPSGVPDRFSGSKSGTSASLAITGLQAEDEADYYCQSYDSSLSGSKVFGGGTKLTVL
B11: D161 (antibody, V domains shown)
VH: EVQLLESGGGLVQPGGSLRLSCAASGFTFSSYAMSWVRQAPGKGLEWVSAISGSGGSTSYADSVKGRFTISRDNSKNTLYLQMNSLRVEDTAVYYCAKGPRVTTEYFEYWGQGTLVTVSS
VL: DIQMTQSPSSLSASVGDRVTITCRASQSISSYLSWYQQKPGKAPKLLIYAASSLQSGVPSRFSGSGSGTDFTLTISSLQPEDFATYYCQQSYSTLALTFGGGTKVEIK
B12: D021 (antibody, V domains shown)
VH: QVQLVESGGGVVQPGRSLRLSCAASGFTFSSYGMHWVRQAPGKGLEWVAVISYDGSNKYYADSVKGRFTISRDNSKNTLYLQMNSLRAEDTAVYYCAKAGQYGDYTHSGDYWGQGTLVTVSS
VL: DIQMTQSPSSLSASVGDRVTITCQASQDISNYLNWYQQKPGKAPKLLIYDASNLETGVPSRFSGSGSGTDFTFTISSLQPEDIATYYCQQYDNLPIAFGQGTRLEIK
B13: D023 (antibody, V domains shown)
VH: EVQLVQSGAEVKKPGESLKISCKGSGYSFTSYWIGWVRQMPGKGLEWMGIIYPGDSDTRYSPSFQGQVTISADKSISTAYLQWSSLKASDTAMYYCAISYSGSYSGAFDIWGQGTMVTVSS
VL: not shown
B14: D182 (antibody, V domains shown)
VH: QVQLVESGGGVVQPGRSLRLSCAASGFTFSSYGMHWVRQAPGKGLEWVAVISYDGSNKYYADSVKGRFTISRDNSKNTLYLQMNSLRAEDTAVYYCAKATVLMVYAGFDYWGQGTLVTVSS
VL: NFMLTQPHSVSESPGKTVTISCTGSSGSIASNYVQWYQQRPGSAPTTVIYEDNQRPSGVPDRFSGSIDSSSNSASLTISGLKTEDEADYYCQSYDSSNRWVFGGGTKLTVL
B15: D010 (antibody, V domains shown)
VH: EVQLVESGGGLVQPGRSLRLSCAAFGFTFDDYAMHWVRQAPGKGLEWVSGISWNSGSIGYADSVKGRFTISRDNAKNSLYLQMNSLRAEDTALYYCAKDITFRDGYPGAVDYWGQGTLVTVSS
VL: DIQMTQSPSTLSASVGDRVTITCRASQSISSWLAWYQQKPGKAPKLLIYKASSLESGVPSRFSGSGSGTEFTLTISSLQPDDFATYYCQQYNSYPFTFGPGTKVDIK
B16: D163 (antibody, V domains shown)
VH: QVQLVQSGAEVKKPGASVKVSCKASGYTFTSYYMHWVRQAPGQGLEWMGIINPSGGSTSYAQKFQGRVTMTRDTSTSTVYMELSSLRSEDTAVYYCARDFSLIPATAMVLDYWGQGTLVTVSS
VL: DIQMTQSPVSLSASVGDRVTITCRASQSISSWLAWYQQKPGKAPKLLIYKASSLESGVPSRFSGSGSGTEFTLTISSLQPDDFATYYCQQYNSYASFGQGTKVEIK
B17: D016 (antibody, V domains shown)
VH: EVQLVESGGGLVQPGRSLRLSCAASGFTFDDYAMHWVRQAPGKGLEWVSGISWNSGSIGYADSVKGRFTISRDNAKNSLYLQMNSLRAEDMALYYCAKDAGIAAVNWYFDLWGRGTLVTVSS
VL: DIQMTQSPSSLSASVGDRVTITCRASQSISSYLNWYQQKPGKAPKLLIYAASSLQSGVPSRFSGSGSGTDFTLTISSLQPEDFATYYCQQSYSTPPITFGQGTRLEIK
B18: D105 (antibody, V domains shown)
VH: QVQLQQWGAGLLKPSETLSLTCAVFGGSFSGYYWSWIRQPPGKGLEWIGEINHSGSTNYNPSLKSRVTLSVDTSKNQFSLELSSVTAADTAVYYCARVGPILFDYWGQGTLVTVSS
VL: QFVLTQPPSVSAAPGQKVTISCSGSSSNIGNNYVSWFQQLPGTAPKLLIYDNNMRPSRIPDRFSGSKSGTSATLGITGLQTGDEADYYCGTWDSSLSSVVFGGGTKLTVL
B19: D132 (antibody, V domains shown)
VH: EVQLVESGGGLVQPGRSLRLSCAASGFTFDDYAMHWVRQAPGKGLEWVSGISWNSGSIGYADSVKGRFTISRDNAKNSLYLQMNSLRNDDTALYYCAKGRIGGNYYLLDYWGQGTLVTVSS
VL: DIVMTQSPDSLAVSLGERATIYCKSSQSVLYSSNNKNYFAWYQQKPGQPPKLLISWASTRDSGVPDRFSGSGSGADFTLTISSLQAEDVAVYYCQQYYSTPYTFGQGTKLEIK
B20: C2694 (antibody, V domains shown)
VH: EVQLVESGGGLVQPGRSLRLSCAASGFTFDDYAMHWVRQAPGKGLEWVSGISWNSGSIGYADSVKGRFTISRDNAKNSLYLQMNSLRAEDTALYYCAKDSLLWYDSSGYYHYYYYGMDVWGQGTTVTVSS
VL: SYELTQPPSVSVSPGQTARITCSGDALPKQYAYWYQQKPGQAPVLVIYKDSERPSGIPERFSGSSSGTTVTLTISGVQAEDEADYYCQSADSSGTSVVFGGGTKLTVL
B21: D142 (antibody, V domains shown)
VH: QVQLVESGGGVVQPGRSLRLSCAASGFTFSSYGMHWVRQAPGKGLEWVAVISYDGSNKYYADSVKGRFTISRDNSKNTLYLQMNSLRAEDTAVYYCAKKPTMYYYDSSGYYYFDYWGQGTLVTVSS
VL: QFVLTQPPSVSGAPGQRVTISCTGSSSNIGAGYDVHWYQQLPGTAPKLLIYGNSNRPSGVPDRFSGSKSGTSASLAITGLQAEDEADYYCQSYDSSLSGYVFGTGTKVTVL
B22: D071 (antibody, V domains shown)
VH: EVQLVESGGGLVQPGRSLRLSCTASGFTFGDYAMSWFRQAPGKGLEWLGFIKSKSYGGTTEYAASVKGRFTISREDSKSIAYLQMNSLKTEDTAVYYCTRTIFGVVHFDYWGQGTLVTVSS
VL: SYVLTQPPSVSVAPGKTARITCERNNIGSKSVHWYQQKPGRAPVLVIYYDSDRPSGIPERFSGSNSENTATLTISRVEAGDEADYYCQVWNSSSDHPVFGGGTKLTVL
B23: D055 (antibody, V domains shown)
VH: EVQLVESGGGLVQPGGSLRLSCAASGFTFSSYDMHWVRQATGKGLEWVSAIGTAGDTYYPGSVKGRFTISRENAKNSLYLQMNSLRAGDTAVYYCARGAMVRGVIMVFDYWGQGTLVTVSS
VL: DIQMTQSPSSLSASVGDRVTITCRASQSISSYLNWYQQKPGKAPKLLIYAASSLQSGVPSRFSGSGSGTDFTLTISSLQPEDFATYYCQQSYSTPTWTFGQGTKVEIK
B24: D033 (antibody, V domains shown)
VH: QVQLVESGGGVVQPGRSLRLSCAASGFTFSYYAMHWVRQAPGKGLEWVAVISYDGINKYYADSVKGRFTFSRDNSKNTLYLQMNSLSAEDTAVYYCARPYCGGDCYRAPDYWGQGTLVTVSS
VL: QSVLTQEPSLTVSPGGTVTLTCGSSTGAVTSSHYPYWFQQKPGQVPRTLIYDTSNKHSWTPARFSGSLLGGKAALTLSGAQPEDEADYYCLLSYSGVRRVFGGGTKLTVL
B25: D072 (antibody, V domains shown)
VH: QVQLQQWGAGLLKPSETLSLTCAVYGGSFSGHYWSWIRQSPGKGLEWIGEINHSGDTNYNASLKSRVTISVDTSKNQFSLQMTSVTAADTAVYYCARRRGIVLMRAVDVWGKGTTVTVSS
VL: EIVMTQSPATLSLSPGERATLSCRASQSVSNNYFSWYQQKPGQAPRLLIYGASARATGIPARFSGSGSGTEFTLTISSLQPEDIALYFCQQDFHPYTFGQGTKLEIK

Biological target: SARS-CoV-2 spike RBD (WT) (Severe acute respiratory syndrome …, UniProt P0DTC2)
Experiment: ELISA
Design: unit not given here

| Binder | binding score |
| --- | --- |
| B1 | 1430 |
| B2 | 8900 |
| B3 | > 10000 |
| B4 | > 10000 |
| B5 | 4560 |
| B6 | > 10000 |
| B7 | 8900 |
| B8 | 7780 |
| B9 | 49 |
| B10 | > 10000 |
| B11 | > 10000 |
| B12 | 4670 |
| B13 | > 10000 |
| B14 | 2500 |
| B15 | > 10000 |
| B16 | > 10000 |
| B17 | 5250 |
| B18 | 1340 |
| B19 | 9490 |
| B20 | > 10000 |
| B21 | > 10000 |
| B22 | > 10000 |
| B23 | 9930 |
| B24 | > 10000 |
| B25 | > 10000 |
